From patent US20250228955A1 (ALBERT EINSTEIN COLLEGE OF MEDICINE, published 2025)
Where two headings read alike, the source gives them in different places.

Assays:
[1] = target: T1, recombinant Strep-tagged SARS-CoV-2 trimeric spike (SARS-CoV-2, UniProt P0DTC2 14-1208)
[2] = target: T2, human epidermal growth factor receptor (EGFR) (human, UniProt P00533 25-645); experiment: biolayer interferometry
[3] = target: T1, recombinant Strep-tagged SARS-CoV-2 …; remark: listed apart in the source
[4] = target: T1, recombinant Strep-tagged SARS-CoV-2 …; remark: listed apart in the source
[5] = target: T2, human epidermal growth factor receptor …
[6] = target: T1, recombinant Strep-tagged SARS-CoV-2 …; remark: listed apart in the source

B1: VHH-72 (SARS-CoV-2 spike VHH, soluble recombinant) (VHH)
VHH: QVQLQESGGGLVQAGGSLRLSCAASGRTFSEYAMGWFRQAPGKEREFVATISWSGGSTYYTDSVKGRFTISRDNAKNTVYLQMNSLKPDDTAVYYCAAAGLGTVVSEWDYDYDYWGQGTQVTVSS
notes: also called parental VHH-72; VHH 72.58
[1]
  Kd: 460 nM
  koff: 0.0364 s⁻¹
  kon: 79200 M⁻¹ s⁻¹
[2]
  binding result: no binding

B2: VHH-72-A56R fusion (VHH-72 fused to vaccinia virus (VACV) A56R for rVACV display) (VHH)
VHH: B1 VHH
[3]
  EC50 (read off the curve): ~0.07 ng/µL

B3: ODIN-8 (VHH-72.58 with UL-CDR3 from 60H05 bovine IgG in FR2 loop) (bispecific antibody, V domains shown)
VH: MGWFRQNKLKSCPDGYTSGVECRFRGYTCANDGCWRVCSFTTCSGWMPASDTYRREFVATISWSGGSTYYTDSVKGRFTISRDNAKNTVYLQMNSLKPDDTAVYYCAAAGLGTVVSEWDYDYDYWGQGTQVTVSS
[4]
  Kd: 76.4 nM
  koff: 0.012 s⁻¹
  kon: 158000 M⁻¹ s⁻¹
[5]
  Kd: 11.4 nM
  koff: 0.00103 s⁻¹
  kon: 90500 M⁻¹ s⁻¹

B4: ODIN-1-A56R fusion (ODIN-1 fused to vaccinia virus (VACV) A56R for rVACV display) (bispecific antibody, V domains shown)
VH: MGWFRQTNKKECPEDYTYNPRCPQQYGWSDCDCMGDRFGGYCRQDGCSNYIHRSTREFVATISWSGGSTYYTDSVKGRFTISRDNAKNTVYLQMNSLKPDDTAVYYCAAAGLGTVVSEWDYDYDYWGQGTQVTVSS
[6]
  EC50 (read off the curve): ~0.2 ng/µL
[3]
  EC50 (read off the curve): ~0.06 ng/µL
